Experiments:
rab5a_human RAB5A = rab5a_human RAB5A (UniProt P20339)
rab8a_human RAB8A [1] = target: rab8a_human RAB8A (UniProt P61006)
rab1b_human RAB1B = rab1b_human RAB1B (UniProt Q9H0U4)
rab8a_human RAB8A [2] = target: rab8a_human RAB8A (UniProt P61006); remark: listed apart in the source
rab6a_human RAB6A = rab6a_human RAB6A (UniProt P20340)
rab8a_human RAB8A [3] = target: rab8a_human RAB8A (UniProt P61006); remark: listed apart in the source

Sequence of rab8a_human RAB8A (P61006 whole entry): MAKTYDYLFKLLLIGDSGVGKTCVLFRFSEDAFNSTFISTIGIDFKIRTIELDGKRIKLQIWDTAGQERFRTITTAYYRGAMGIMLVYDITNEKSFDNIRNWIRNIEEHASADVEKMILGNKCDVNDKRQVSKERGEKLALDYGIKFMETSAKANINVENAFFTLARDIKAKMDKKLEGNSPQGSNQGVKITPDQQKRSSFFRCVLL
Sequence of Inositol polyphosphate 5-phosphatase OCRL (Homo sapiens), Q01968 F668V (Q01968 whole entry F668V): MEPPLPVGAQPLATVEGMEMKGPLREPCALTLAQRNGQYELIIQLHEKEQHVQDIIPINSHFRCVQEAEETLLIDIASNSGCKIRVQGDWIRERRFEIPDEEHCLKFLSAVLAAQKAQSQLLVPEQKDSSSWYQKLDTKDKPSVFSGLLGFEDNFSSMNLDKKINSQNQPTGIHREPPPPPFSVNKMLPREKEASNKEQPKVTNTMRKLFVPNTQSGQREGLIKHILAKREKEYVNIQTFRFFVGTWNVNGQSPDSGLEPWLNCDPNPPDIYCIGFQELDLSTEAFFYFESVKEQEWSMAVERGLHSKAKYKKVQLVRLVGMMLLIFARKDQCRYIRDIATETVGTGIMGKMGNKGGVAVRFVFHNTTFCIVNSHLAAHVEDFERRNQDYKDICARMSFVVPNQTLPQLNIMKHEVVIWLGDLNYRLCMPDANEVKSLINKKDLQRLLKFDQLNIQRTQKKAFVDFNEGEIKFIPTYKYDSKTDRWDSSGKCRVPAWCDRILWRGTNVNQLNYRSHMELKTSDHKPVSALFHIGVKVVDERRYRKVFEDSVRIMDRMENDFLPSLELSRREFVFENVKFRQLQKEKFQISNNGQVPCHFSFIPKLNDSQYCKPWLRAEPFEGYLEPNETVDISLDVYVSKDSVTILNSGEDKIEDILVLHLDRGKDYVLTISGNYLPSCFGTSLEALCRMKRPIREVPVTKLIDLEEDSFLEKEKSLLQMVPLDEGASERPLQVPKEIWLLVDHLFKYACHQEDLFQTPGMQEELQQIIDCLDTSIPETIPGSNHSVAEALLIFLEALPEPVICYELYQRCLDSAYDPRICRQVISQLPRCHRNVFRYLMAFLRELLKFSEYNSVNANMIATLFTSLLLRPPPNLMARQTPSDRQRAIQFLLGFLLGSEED
Sequence of Inositol polyphosphate 5-phosphatase OCRL (Homo sapiens), Q01968 F668A (Q01968 whole entry F668A): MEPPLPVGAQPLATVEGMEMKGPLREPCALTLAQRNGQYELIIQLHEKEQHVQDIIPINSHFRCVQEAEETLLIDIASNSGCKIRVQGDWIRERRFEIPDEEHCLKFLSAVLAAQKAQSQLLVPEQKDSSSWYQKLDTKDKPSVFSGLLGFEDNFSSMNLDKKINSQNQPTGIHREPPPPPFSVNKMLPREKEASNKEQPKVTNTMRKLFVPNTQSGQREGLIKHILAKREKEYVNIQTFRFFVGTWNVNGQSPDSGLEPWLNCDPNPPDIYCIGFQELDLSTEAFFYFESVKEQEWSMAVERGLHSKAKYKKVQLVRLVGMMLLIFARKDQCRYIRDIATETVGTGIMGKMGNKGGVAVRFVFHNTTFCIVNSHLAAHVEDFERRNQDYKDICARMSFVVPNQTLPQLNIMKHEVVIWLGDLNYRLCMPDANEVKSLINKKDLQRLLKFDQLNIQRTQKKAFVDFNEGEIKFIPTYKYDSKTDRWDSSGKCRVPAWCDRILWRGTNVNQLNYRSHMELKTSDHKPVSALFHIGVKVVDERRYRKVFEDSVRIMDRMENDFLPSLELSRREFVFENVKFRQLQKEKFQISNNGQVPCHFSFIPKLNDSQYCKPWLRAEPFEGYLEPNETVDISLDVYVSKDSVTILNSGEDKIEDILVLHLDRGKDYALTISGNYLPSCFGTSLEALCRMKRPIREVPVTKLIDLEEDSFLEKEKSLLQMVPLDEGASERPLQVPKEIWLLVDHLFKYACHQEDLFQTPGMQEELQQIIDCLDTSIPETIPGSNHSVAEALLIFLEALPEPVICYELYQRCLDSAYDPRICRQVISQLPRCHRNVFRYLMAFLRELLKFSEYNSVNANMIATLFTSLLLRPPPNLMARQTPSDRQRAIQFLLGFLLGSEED
Sequence of rab5a_human RAB5A (P20339 whole entry): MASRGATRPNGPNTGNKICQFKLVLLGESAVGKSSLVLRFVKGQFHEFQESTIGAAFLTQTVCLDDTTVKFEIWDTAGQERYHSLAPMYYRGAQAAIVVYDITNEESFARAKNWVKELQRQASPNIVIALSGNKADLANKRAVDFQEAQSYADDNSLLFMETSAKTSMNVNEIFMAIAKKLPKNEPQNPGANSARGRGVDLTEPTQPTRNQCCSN
Sequence of rab1b_human RAB1B (Q9H0U4 whole entry): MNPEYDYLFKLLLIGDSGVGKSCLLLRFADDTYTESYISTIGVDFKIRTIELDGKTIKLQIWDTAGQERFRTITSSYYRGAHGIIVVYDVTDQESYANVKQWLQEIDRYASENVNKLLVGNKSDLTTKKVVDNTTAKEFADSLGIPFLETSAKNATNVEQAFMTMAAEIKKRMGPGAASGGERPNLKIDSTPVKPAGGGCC
Sequence of rab6a_human RAB6A (P20340 whole entry, looked up): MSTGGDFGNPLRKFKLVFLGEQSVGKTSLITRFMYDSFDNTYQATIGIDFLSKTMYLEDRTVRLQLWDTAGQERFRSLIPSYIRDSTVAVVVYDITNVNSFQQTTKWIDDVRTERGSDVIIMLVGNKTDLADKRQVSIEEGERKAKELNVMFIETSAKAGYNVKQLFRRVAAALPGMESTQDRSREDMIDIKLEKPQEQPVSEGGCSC

| Substance | effect of a mutation on the interaction (rab5a_human RAB5A) | effect of a mutation on the interaction (rab8a_human RAB8A [1]) | effect of a mutation on the interaction (rab1b_human RAB1B) | effect of a mutation on the interaction (rab8a_human RAB8A [2]) | effect of a mutation on the interaction (rab6a_human RAB6A) | effect of a mutation on the interaction (rab8a_human RAB8A [3]) |
| --- | --- | --- | --- | --- | --- | --- |
| Inositol polyphosphate 5-phosphatase OCRL (Homo sapiens), Q01968 F668A | disrupting interaction | decreasing interaction |  |  |  |  |
| Inositol polyphosphate 5-phosphatase OCRL (Homo sapiens), Q01968 F668V |  |  | disrupting interaction | decreasing interaction | disrupting interaction | disrupting interaction |
